Numbered stars: 1 amine (or outer) side, 2 acyl side, 3 side chain; on linkers, the order of the positions; unused ones are H or OH. Bridge positions count the residues as written; N and C are the ends. Square brackets hold non-standard residues; d marks the D form. mXylylene = c1cc(C[*:1])cc(C[*:2])c1; αMeF = C[C@](N)(Cc1ccccc1)C(=O)O; 2Thi = N[C@@H](Cc1cccs1)C(=O)O
How the values were obtained:
[1] = target: Recombinant human FAP (R&D systems, #3715-SE) (human, UniProt Q12884 26-760); experiment: cell-based or functional assay
[2] = target: T1, fibroblast activation protein (FAP) on FAP-expressing human WI-38 fibroblasts (human, UniProt Q12884 1-760); experiment: competitive FACS, WI-38 cells, vs Cy5 tracer m3; A = pIC50 >8.0
T1 construct: also called human FAP

Binder | pIC50 Category (Activity) [1] [pIC50] | pIC50 Category (FACS) [2] [pIC50]
Ac-MCPPTE[2Thi]CDHFRD-NH2 (linker 2-8 via mXylylene; SMILES CSCC[C@H](NC(C)=O)C(=O)N[C@H]1CSCc2cccc(c2)CSC[C@@H](C(=O)N[C@@H](CC(=O)O)C(=O)N[C@@H](Cc2c[nH]cn2)C(=O)N[C@@H](Cc2ccccc2)C(=O)N[C@@H](CCCNC(=N)N)C(=O)N[C@@H](CC(=O)O)C(N)=O)NC(=O)[C@H](Cc2cccs2)NC(=O)[C@H](CCC(=O)O)NC(=O)[C@H]([C@@H](C)O)NC(=O)[C@@H]2CCCN2C(=O)[C@@H]2CCCN2C1=O, also called 3BP-3193) [Ac-Met-[Cys(3MeBn)-Pro-Pro-Thr-Glu-Thi-Cys]-Asp-His-Phe-Arg-Asp-NH2] | > 8 | > 8
Ac-MCPPTEFCDHFR-NH2 (linker 2-8 via mXylylene; SMILES CSCC[C@H](NC(C)=O)C(=O)N[C@H]1CSCc2cccc(c2)CSC[C@@H](C(=O)N[C@@H](CC(=O)O)C(=O)N[C@@H](Cc2c[nH]cn2)C(=O)N[C@@H](Cc2ccccc2)C(=O)N[C@@H](CCCNC(=N)N)C(N)=O)NC(=O)[C@H](Cc2ccccc2)NC(=O)[C@H](CCC(=O)O)NC(=O)[C@H]([C@@H](C)O)NC(=O)[C@@H]2CCCN2C(=O)[C@@H]2CCCN2C1=O, also called 3BP-3200) [Ac-Met-[Cys(3MeBn)-Pro-Pro-Thr-Glu-Phe-Cys]-Asp-His-Phe-Arg-NH2] | > 8 | > 8
Ac-CPPTEFCDHFRD-NH2 (linker 1-7 via mXylylene; SMILES CC(=O)N[C@H]1CSCc2cccc(c2)CSC[C@@H](C(=O)N[C@@H](CC(=O)O)C(=O)N[C@@H](Cc2c[nH]cn2)C(=O)N[C@@H](Cc2ccccc2)C(=O)N[C@@H](CCCNC(=N)N)C(=O)N[C@@H](CC(=O)O)C(N)=O)NC(=O)[C@H](Cc2ccccc2)NC(=O)[C@H](CCC(=O)O)NC(=O)[C@H]([C@@H](C)O)NC(=O)[C@@H]2CCCN2C(=O)[C@@H]2CCCN2C1=O, also called 3BP-3202) [Ac-[Cys(3MeBn)-Pro-Pro-Thr-Glu-Phe-Cys]-Asp-His-Phe-Arg-Asp-NH2] | > 8 | > 8
Ac-MCPPTEFCDH[αMeF]RD-NH2 (linker 2-8 via mXylylene; SMILES CSCC[C@H](NC(C)=O)C(=O)N[C@H]1CSCc2cccc(c2)CSC[C@@H](C(=O)N[C@@H](CC(=O)O)C(=O)N[C@@H](Cc2c[nH]cn2)C(=O)N[C@@](C)(Cc2ccccc2)C(=O)N[C@@H](CCCNC(=N)N)C(=O)N[C@@H](CC(=O)O)C(N)=O)NC(=O)[C@H](Cc2ccccc2)NC(=O)[C@H](CCC(=O)O)NC(=O)[C@H]([C@@H](C)O)NC(=O)[C@@H]2CCCN2C(=O)[C@@H]2CCCN2C1=O, also called 3BP-3203) [Ac-Met-[Cys(3MeBn)-Pro-Pro-Thr-Glu-Phe-Cys]-Asp-His-Amf-Arg-Asp-NH2] | > 8 | > 8
Ac-MCPPTEFCD[dH]FRD-NH2 (linker 2-8 via mXylylene; SMILES CSCC[C@H](NC(C)=O)C(=O)N[C@H]1CSCc2cccc(c2)CSC[C@@H](C(=O)N[C@@H](CC(=O)O)C(=O)N[C@H](Cc2c[nH]cn2)C(=O)N[C@@H](Cc2ccccc2)C(=O)N[C@@H](CCCNC(=N)N)C(=O)N[C@@H](CC(=O)O)C(N)=O)NC(=O)[C@H](Cc2ccccc2)NC(=O)[C@H](CCC(=O)O)NC(=O)[C@H]([C@@H](C)O)NC(=O)[C@@H]2CCCN2C(=O)[C@@H]2CCCN2C1=O, also called 3BP-3210) [Ac-Met-[Cys(3MeBn)-Pro-Pro-Thr-Glu-Phe-Cys]-Asp-his-Phe-Arg-Asp-NH2] | > 8 | > 8
Ac-MCPPTEFCDH[dF]RD-NH2 (linker 2-8 via mXylylene; SMILES CSCC[C@H](NC(C)=O)C(=O)N[C@H]1CSCc2cccc(c2)CSC[C@@H](C(=O)N[C@@H](CC(=O)O)C(=O)N[C@@H](Cc2c[nH]cn2)C(=O)N[C@H](Cc2ccccc2)C(=O)N[C@@H](CCCNC(=N)N)C(=O)N[C@@H](CC(=O)O)C(N)=O)NC(=O)[C@H](Cc2ccccc2)NC(=O)[C@H](CCC(=O)O)NC(=O)[C@H]([C@@H](C)O)NC(=O)[C@@H]2CCCN2C(=O)[C@@H]2CCCN2C1=O, also called 3BP-3211) [Ac-Met-[Cys(3MeBn)-Pro-Pro-Thr-Glu-Phe-Cys]-Asp-His-phe-Arg-Asp-NH2] | > 8 | > 8

Source: US20230212549A1 (3B PHARMACEUTICALS, published 2023)
